20 sequences from a protein production outcome set (Wang et al. 2014) can be followed below.

A short description of the data set: label from the status in PepcDB records.
Consider “MSLDARFDIAHLARAELFSPKPQETLDFFTKFLGMYVTHREGQSVYLRGYEDPYPWSLKITEAPEAGMGHAAMRTSSPEALERRAKSLTDGNVDGTWSEDQFGYGKTFEYQSPDGHNLQLLWEAEKYVAPPELRSKILTRPSKKPLQGIPVKRIDHLNLMSSDVTAVKDSFERHLGFRTTERVVDGNVEIGAWMSSNLLGHEVACMRDMTGGHGKLHHLAFFYGTGQHNIDAVEMFRDYDIQIEAGPDKHGITQSQFLYVFEPGGNRIELFGEAGYLHLDPDAETKTWQMSDIDTGLAVGGAKLPWESYFTYGTPSPLSLDQHIEKYAHFGEGHHHHHH”, for which the protein production entry was “not failed”. With “MKGKLGLFAAMLVLAGCATASEQLRVYTEQYPPYNMTTNGQPFAHSESEITGLCTDVLKAVLENAKVDYSIKLRDLSYGMNRAQRHEDHGIYCVSKTDEREPFFEWVGPLSSIKWTLFAKPGSSIKLDDLEDARDYRIGGYKGDVMTGYLEDKGFDVSAITNNGLNAKRLEQDQIDLWVADGLAGPYLAADASDVTGLEAVLVFRETPMYLAINKDSDPDLIKALNTAYQAMQESGEIDTISRSYGL” the entry was “failed”; with “MKRLIAATLVAAMGVSLLTGCGVSNKSHDNTQVGTTENSSDKAKNKEVKMHVWCSKDDVDITTQMIESFKEANKGTDFNIIIEESEDSDARDNILSNVHNGADVFPIADDQITSMVAGGALYEIEDVDAVKKANDESAVEAATIDGKLYGYPLTADNGYFMYYNKNYFSDSDVATLDGMLDIAGANGKYLTMDWSSGWYLYSFFGNTGLDFGVNDDGVTNHCNWNAIITDIKGVDIAQAMLDIAAKPGFKNCVQDDFIAGVQDGSIIAGVSGCWNAAKIKELWGDDYGAVKLPTYTCAGQQIQMSSFKGYKYMAVNAYTKYPEWANKLAQWFTNEDNQKLRFEMKNVGPANKAAAADDAVKKVPAIMAVMDQAQYGKLQRVGNSYWDAATEFGEKMAAGNPDNTDLQEIMDNLVAGITQSVAE”, “failed”. The entry for “MESGIFGEGGSLPPLPVLLRGLQDLGLLGKLDIARRATLTGISLCFSVFLQHIGIMWIQVRTMDGKETHTVNSLSRLTKVQELRKKIEELFHVEPQLQRLFYRGKQMEDGHTLFDYDVRLNDTIQLLVRQSLALPLSTKERDSELSDSDSGYGVGHSESDKSSTHGEGTADGDDKTVWEDTDLGLYKVNEYVDVRDNIFGAWFEAQVVQVQKKALSEEEPCSSSAIMAPEDDIMYHIKYDDYPEHGVDIVKAKNVRARARTVIPWEDLEVGQVVMANYNVDYPRKRGFWYDVEICRKRQTRTARELYGNVMLLNDSQLNNCRIIFVDEVLKIELPNERSPLIGSPSRRKSGPSCQYCKDDENKPCRKCACHICGGREAPEKQVLCDECDMAFHLYCLQPPLTCVPPEPEWYCPSCRTDSSEVVQAGEKLKKSKKKAKMASATSSSRRDWGKGMACVGRTTECTIVPANHFGPIPGVPVGTMWRFRVQVSESGVHRPHVAGIHGRSNDGAYSLVLAGGYEDDVDNGNFFTYTGSGGRDLSGNKRTAGQSSDQKLTNNNRALALNCHSPINEKGAEAEDWRQGKPVRVVRNMKGGKHSKYAPAEGNRYDGIYKVVKYWPEKGKSGFIVWRYLLRRDDTEPEPWTREGKDRTRQLGLTMQYPEGYLEALANKEKNRKRPAKALEQGPSSSKIGKSKRKSTGPATTSPRVSKKSKLEPYTLPLQQANLIKEDKGNAKLWDDVLSSLQDGPYQIFLSKVKEAFQCICCQELVFRPVTTVCQHNVCKDCLDRSFRAQVFSCPACRYDLDHSSPTRVNQPLQTILNQLFPGYGSGR” is “failed”; for “MLKSEDADYEKAMKDKVGTGPQEYLKQLSDSLVKNQSAASVEVVSGATHSSDAFINYANQLIQAAQKADTTTISINNLAKMEDGTYKLEEQNYAHGYRVVFSMDVKDGKITKSDYNYVDKDGKLKSDDADYEKNMKAKSGTGPKEYIPALNKSLVEKQDVAAVDTVSGATNSSNQFKIYAAQLQNAAQNGNTDTIKVYNLVEAELEHHHHHH” it is “failed”; for “MTEISYEAIAFEQSGPITRITLNRPDAANGMNDTMTRELADAARRADTSGAKVVVLTGSGRFFSAGGDLKAFSTAPSRGAFIKGVADDLHRAISSFARMDAVLITAVNGTAAGAGFSIAVTGDLVLAAESASFTMAYTKVGLSPDGSASYYLPRLVGMRRAQELMLTNRTLSATEAYEWGLVTEVVPDADLADRATKLAEQVAAGSAGSNGAVKSLLLSSLKNSLEEQMEAEGRFIAARADSADGREGVDAFLGKRRPEFA” it is “failed”. Regarding “QEVSWTQYTQRKFQKSRQPRPSSQYNQRLFGGDMEKFIQSSGQPVPLVVESCIRFINLNGLQHEGIFRVSGAQLRVSEIRDAFERGEDPLVEGCTAHDLDSVAGVLKLYFRSLEPPLFPPDLFGELLASSELEDTAERVEHVSRLLWRLPAPVLVVLRYLFTFLNHLAQYSDENMMDPYNLAVCFGPTLLPVPAGQDPVALQGRVNQLVQTLIVQPDRVFPPLTSLPGPVYE”, the protein production result was “failed”. For “MDFWPEFMATSWGREFVAGGFGGVAGIISGYPLDTLRIRQQQSSKSGSAFSILRRMLAIEGPSSLYRGMAAPLASVTFQNAMVFQIYAIFSRSFDSSVPLVEPPSYRGVALGGVATGAVQSLLLTPVELIKIRLQLQQTKSGPITLAKSILRRQGLQGLYRGLTITVLRDAPAHGLYFWTYEYVRERLHPGCRKTGQENLRTMLVAGGLAGVASWVACYPLDVVKTRLQQGHGAYEGIADCFRKSVKQEGYTVLWRGLGTAVARAFVVNGAIFAAYEVALRCLFNQSPSPDIVTGD”, the protein production result is recorded as “failed”.

Consider “MFSQTIFFGMKQSARGVSVAFSTLQEASMHKRVLIQAASALLALQFMAVPVFAAGSSGGGSDQTVTQCKKGEVWDKKKKKCVAPQEGMLDDDSIYDAGHALAMAGRYDEAISVLTLAANKQDPRILNYLGYSHRHSGRVTVGLGYYEEALRIDPNYTLVREYLGEAHLQIGDLAGAQQQLMEIEKRTGKGSREYGMLSEQIDHFMRS”, for which the protein production result is on record as “failed”. Take “MGNFLRRSCAVHPASGDGGRGRHVDEPPQQRPSSVRIKVRMRRDQLEELLYLARRGDQSDDGGKIGFLILKECMEGRLPASVLGSGGDVRSQRRGSYMVYRRLGSITEE”: the protein production entry is “failed”.

On to “MLLRRRLFVLCILILTITAVQSFVHVLSGDGLSALDLALTAVFVPLAAWLAQSFCTLTAGALMIATQRFSWRRRRDELADIASGLVDSLPRVAIVMPVYNEDSGRVFAGVAAMRDELRALGVAKRFDVFILSDSTDGDNWLAEEEAWDSERHRVGDSPRLFYRRRFRNIKRKTGNIGQFVERHGAAYGYMVVLDADSLMSGEAIWVLTRRMDAERRTALIQAPPKLIMGDTPFSRMLQFAGDVYGPLSSAGLAFWAGGEGNYWGHNAIIRVDAFAACCGLPALPGRAPLGGDILSHDFVEAALLRRAGWKVRIAWDLGGSYEEPPPTMEDFMVRDRRWCQGNMQHGRILFARGLHGVSRSHLLIGIMSYVTSPLWLIFLILSGMQAWTLARAKAVYFQQGVPWATWPISREEEAAYLLAGTLGMLFLPKIWGLLLAIFHGPTRRAHGGGLALVGGFFLENLISALVAPIMMIRHSQFVVSILTGAKVDWKPQRRTADKGNLRVALASYKDVMVIGIAAVAFVLWAAPSLGVWLSPVLAGLLGAPFLAMALGDPDLGAALRRRGLLVIPEEITPPSVLTRMEERLAARPPTAEAPESRFSRVILDPGTNARHRALIQATGEAPTAPVEVMERAVGLAIHLGPEALGKDERKALLECPERLEQLHVACWARRLEDRGGVAPG”, for which the protein production result is listed as “failed”. Take “MPAAAYWLPASDETPLYTRHWPSATAVGAVMLSHGMAEHAGRYERLAAALNAAGYHFYAIDQRGHGRTAEADELGHFADQGGWGKVVGDLASLNHHIRQQHPELPIFLLGHSMGSYISMAYLLHHSCSLQGAILSGSNYQPQALYRIARLIARFERWRQGPLGKSALIDFLSFGSFNKAFKPNRTAFDWLSRDPQEVDRYVADPLCGFRCSNQLWVDLLGGLADITPPTHLRQIDADLPLLIIGGERDPVSQGKRLGDLADALRGAGLRQVTLKTYPEARHELFNESNRDAVTQDLIDWLEQALRHRRDHST”: the protein production entry is on record as “failed”. The entry for “MSLVGKTLSGRYRVVRPLARGALARVYLAFDPFGTPYALKLFPPKARPRRDRELWVGRRLAHPNLNPVLEALDLEEGPALLLAYAPGEELGRWMGKSPAFSQAMRVFHQLLLALAHMHEKGLVHRDVKPENILVNAGEARLLDFDLSGPAQERFQKPLLLGTPAYLAPELLRGLPSGPEADVYAAGIILYWMLTGEHPFADPSGRVSLDPDRGPHPPVAGLGEEAALYLERLLAPDPKARFPTAQEALKAFPF” is “failed”; for “MSVDPACPQSLPCFEASDCKESSPMPVICGPEENYPSLQMSSAEMPHTETVSPLPSSMDLLIQDSPDSSTSPKGKQPTSAENSVAKKEDKVPVKKQKTRTVFSSTQLCVLNDRFQRQKYLSLQQMQELSNILNLSYKQVKTWFQNQRMKSKRWQKNNWPKNSNGVTQKASAPTYPSLYSSYHQGCLVNPTGNLPMWSNQTWNNSTWSNQTQNIQSWSNHSWNTQTWCTQSWNNQAWNSPFYNCGEESLQSCMHFQPNSPASDLEAALEAAGEGLNVIQQTTRYFSTPQTMDLFLNYSMNMQPEDV” it is “not failed”; for “SESKIACHHTVHGFEQRRGLHSRNEKAMEYVAKGWSAIKEVERVIDYCELNDRRLIPLLRGAKENFELALEADNLNTHARYWLSKLHLKYHVPGACKAVGAALLVEAADMGNADAQYELGCRLRVENDHVQSDQQAFHYIENAVDQLHPGALYLLGIVYLTGDCVKQDVDSAIWCFHRASEKGHAGAAIAYGSLLLRGVQVPESLTKLNVVGVSPPKRARKNLENPEMNPLEMAKEQFQIAARAGCDLGLKWLQRVEQEEKLLMREQDNECAYV” it is “failed”. The entry for “MDRNGANMLDGRVESDAKGSFRKDYTKMENNNNGANISDGIYRIIRSFKSFSHFFIRYEEETKEREAEMEIGFPTDVKHLSHIGVDGTMTTFDNTSSSFPFSGFHLTGTVV” is “failed”; for “MSLPQSKVLTSFGTANRTPRAAETHPLTWRLRDDGQPVWLEEYQTKQGYDAVRKALGQMSPDEIVSTVKDAGLKGRGGAGFPTGVKWGLMPKDESMNIRYLLCNADEMEPNTWKDRLLMEQLPHLLIEGMIISAKALKAYRGYIFLRGEYVDAAINLRRAVEEAKAAGLLGKNILGSGFDFELFVHTGAGRYICGEETALINSLEGRRANPRAKPPFPAVSGVWGKPTCVNNVETLCNVPAIIGNGVAWYHTLALPGSEDHGTKLMGFSGKVNNPGVWELPFGITARELFEGYAGGMRSGYRLKAWQPGGAGTGFLLPEHLDAQMYTAGIGKVGTRMGTGLAMAVDDSISMVSLLRNMEEFFARESCGWCTPCRDGLPWSVKLLRSLERGEGQEGDLATLEQLCNFLGPGKTFCAHAPGAVEPLASAIKYFRSEFEAGIKGSGDNRKSIKGIQPNLLGERWLEHHHHHH” it is “not failed”. Regarding “MATGTATEKPKIVWNEGRHRFETDDHEAFIEYKMKNDGKVMDLVRTFVPPSKAGLGLASHLCVAAFEHASEHSFSIIPTCSYVSVYISSFLKKLR”, the protein production entry is on record as “failed”. For the sequence “MKTMRKILEIDEERCNGCGLCVLDCAEGAIAIVDGKAKIVSDSFCDGLGACIGSCPQDALHIIEREAVPFDEEAAMEHVRSQGGTPEANHGHGHGAGTPHRHGQSAEHGGHGRIPGHGGCPGAAMRRFDSAESPAFAVAEGTVKGPGHWPLKIRLVPPTAPFLKGADVLVAADCAAAASPIFHSHFAAGKVVLIGCPKFDDTEAYAERLADILRVSGIASLTVLRMEVPCCRGLSAAAEKARVLSGTSLVLKEVIMTCAGGPAAPAPLSSLLEHHHHHH”, the protein production result is “not failed”. With “MLSIMTFREFMKENGYEVKTKFWEDFSLAERFGLSAIQDTFNRAFKEWKEDYEFLTELVLVLNHKIWQYHEKRPEFAELYNTLEEQTDQYAMENLKDEELSYFFDVTDLEHHHHHH” the entry was “not failed”.
